According to PMC8585947, “Structure of Escherichia coli cytochrome bd-II type oxidase with bound aurachin D” (Nature Communications, 2021):

T1: AppC, subunit of Escherichia coli cytochrome bd-II oxidase (E. coli, UniProt P26459 1-514)
T1 construct: AppC, cytochrome bd-II oxidase subunit, E. coli; predicted molecular mass 58.1 kDa; gene amplified from genomic DNA of strain BW25113; also called AppChis
T1 sequence: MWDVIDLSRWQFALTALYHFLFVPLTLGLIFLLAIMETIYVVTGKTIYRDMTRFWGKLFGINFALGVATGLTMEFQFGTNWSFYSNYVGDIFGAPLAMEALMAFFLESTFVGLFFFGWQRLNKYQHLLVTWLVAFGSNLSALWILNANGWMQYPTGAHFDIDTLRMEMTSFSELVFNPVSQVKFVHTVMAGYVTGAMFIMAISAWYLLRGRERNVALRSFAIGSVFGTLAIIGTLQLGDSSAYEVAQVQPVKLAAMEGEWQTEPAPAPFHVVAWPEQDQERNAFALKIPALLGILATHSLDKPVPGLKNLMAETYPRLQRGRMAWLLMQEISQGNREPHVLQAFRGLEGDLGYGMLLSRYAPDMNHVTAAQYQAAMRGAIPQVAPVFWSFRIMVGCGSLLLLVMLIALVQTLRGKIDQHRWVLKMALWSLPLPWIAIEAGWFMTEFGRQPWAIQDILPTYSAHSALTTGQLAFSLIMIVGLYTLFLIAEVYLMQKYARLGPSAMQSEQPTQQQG


Tests used:
[1] = molecular target: T1, AppC, subunit of Escherichia coli …; assay: cryo-EM structure; bd-II in amphipol A8-35, 5.6 mg/mL, incubated with aurachin D; 20 mM MOPS, 20 mM NaCl, pH 7.0; C2 symmetry imposed; 3.0 Å; settings: both partners purified
[2] = molecular target: the molecule itself; assay: as above

Row | binding result [1] | Binder | binding result [2]
1 | binds | MWYLLWFVGILLMCSLSTLVLVWLDPRLKS (natural protein, E. coli, AppX, cytochrome bd-II oxidase subunit, E. coli; length of 30 amino acid residues; predicted molecular mass 3.6 kDa; gene amplified from genomic DNA of strain BW25113) [AppX, single helix subunit of Escherichia coli cytochrome bd-II oxidase] | binds
2 | binds | AppB, subunit of Escherichia coli cytochrome bd-II oxidase (natural protein, AppB, cytochrome bd-II oxidase subunit, E. coli; predicted molecular mass 42.4 kDa; gene amplified from genomic DNA of strain BW25113) not shown | –
